B1: LAB25g2 (uncultured bacterium LAB25) (protein)
chain: MKKLLTICFVATTFGMTMNAQPKLSADNIDEVLKAMTLEEKAKLLVGGANNFFSANAVVGGEATLVAGAAGTTPEIARLGIPATVLTDGPAGVRINPTRRGTDQTFYATAFPIGSCLASTWNTELVGQVGQAIGNETKEYRCDVILGPGMNLHRNPLCGRNFEYYSEDPFLTGKIAAAYINGVQKEDVGVSAKHFAVNSQETDRTSVDERLSQRAAREIYLRGFEIAVRESNPWTIMASYNIINGTHAMGNRDLLTSILRDDWGYKGIVMTDWIGIRQGLTTISEVQAGNDLMEPGQPAQVQEIIDGVKNGKLAIADVDRNVRRMLEYIVKTPSFRKYPASNKPDFTAHAAITRQSANEGIVLLKNNGTLPWKNIKSVALFGENSYDFLSGGTGSGCVHPPYVVDMLEGLKNAGIKSSETLTDIYRKYIAYARVKFQAERHPAKWFQTEAMGQQKYPEISLSPIAVEKEVRGADAAIITIGRQAGEGIDRDIETEFNLIPEERQLIFDVCQAFHAAGKPVVVIINSGSVIETASWSGYPDAILCAWQPGMEGGNSIADLLTGKVNPSGKLTMTWPIAATDHASTKNFPGALDDYSLMQMLGNGQPIPGHAYTNHEEDIYVGYRFFDTFKRDVAYPFGYGLSYTTFEYSKPVVKAKGQTVEVSITVKNSGSVSGKEVAQVYVAAPKGRLEKPAQELKAFAKTRELQPGESQTLTMTIPVRNLASFDEANSQWLTEAGTYTFRIGANSRDIRCTAEAKLAEYTEQTSNALAPKQKLNLLKQ
notes: gene 2340 bp (779 residues calculated), full ORF from ATG with native signal region in pET-41 Ek/LIC, E. coli BL21(DE3), Ni-NTA, tags removed by enterokinase
B2: LAB20g4 (uncultured bacterium LAB20) (protein)
chain: MKKIMLLSATVLALAGCKGDPQLGKDSVDKVLKAMTLEEKVHFVIGTGMAGFGGESAVVGATKNIVPGAAGTTYPIERLGIPSIVLADGPAGLRIDPTREGDENTYYCTHFPIGTLLASTWNQELVESVGKAMGEEVHEYGADVYLAPALNIHRHPLNGRNFEYYSEDPVVAGKTAAAYVRGVQSNDVGTSIKHFAYNNQETNRTGNNAVISPRAQREIYLKGFEITVKESDPWTVMSSYNKINGTYTSQSRDLITTVLRDEWGFKGLVMTDWFGGDNGAEQIAAGNDMLQPGTDLQYQQIMDAIKDGSLSEDELNICVRRCLELVARSPKAKGYAYSNKPDLKAHAAVTRQSALEGMVLLENNGVLPLKDVKNVAVFGCTSFDFIAGGTGSGNVNRAYTVSLLDGLKNAGFNVDESNKEATLKHIADEDAAFKASLTDQLSAFYPTPRPSELVPSAAELAASARANDVAIITFGRNSGEFFDRTSADFSLSAKEKELLAKVTAAFHAKGKKVVVVLNVGGVIETASWKSVPDAILLAWQAGQEGGNSVTDILTGAKSPSGKLPMTFPVNLMDHASSANFPIDSDTGVYFTNRREDVGQKDVDVTKYEEGIYVGYRWFDKQNLPVSYPFGYGLSYTTFEYSAPAVANDGKTVTAKVTVKNTGSVAGKEAVQLYVSAPAGTLDKPVKELKAYGKTKELAPGESQELTLTFPTSELASFDEEASAWKVDAGTYTFQFGASSRDVRCTATAEAAASETPANRVLLMK
notes: gene 2295 bp (764 residues calculated), full ORF from ATG with native signal region in pET-41 Ek/LIC, E. coli BL21(DE3), Ni-NTA, tags removed by enterokinase
B3: SRF2g14 (uncultured bacterium SRF2) (protein)
chain: MKKTLFFAFGMATLMMGCTSADKVTKNTLNQEEVMNRLSLEDKAHFVIGVGMAGFSGDDAVIGATKNLVPGAAGTTYPLDSLGIPAVVLADGPAGLRIDATREGDSATYYCTHFPIGTLLASTWNQKLVEEVGQAIGEEVKEYGADVLLAPALNIMRNPLCGRNFEYYSEDPVVAGKTASAYITGVQKNDVGTSIKHFAANNQETNRMNTDAHISQRALREIYLKGFEIAIKESKPWTVMTSYNYINGVYTSESKDLVQTILRDEWGYEGTVMTDWFGGKDGAKQMWAGNDMLQPGKAEQFDSIVAGVKSGKLDEADLDRNIQRILNLVEKSPRFQGYQYSNKPDLKAHAAVTRQSAAEGMVLMKNNEVLPLKENVKNVALYGCTSYDFIAGGTGSGNVNHAYVVSLLDGLKNGGYNVSDELKSAYEKYIADCKEARKKEIEEMAKKDKQAAMLARFMPGTLPAEKQFSSEELAKQADASDLAVITIGRISGEFLDRKAADFNLNDSEMKLIQQVCEVYHKVGKQVVVLLNIGGVIETASWKELPDAILCAWQAGQEGGNSVVDVLSGKQSPSGKFTMTWPVKFTDAYSSKNFPIDEDPKIDMMNQGQKGNVKNVDYADYEEDIYVGYRYFDSFDVPVSYPFGFGLSYTTFEYSDAKISQKNDIYDVTVTVKNTGKFEGKEVVELYISAPDNKAANKPSKELKAFAKTRSLKPGESETLTLSVTAPELASFDEAASAWVVAEGEYQFLVGASSQDIKATLTANAKSFQIKVNDVMKPQVQMNLLKR
notes: gene 2361 bp (786 residues calculated), full ORF from ATG with native signal region in pET-41 Ek/LIC, E. coli BL21(DE3), Ni-NTA, tags removed by enterokinase
B4: SRF2g18 (uncultured bacterium SRF2) (protein)
chain: MRKSIHQISLVILAVVAMCGYSLRMKAQQLKAENIDEVVKAMTLEEKCHMVLGRGMHFNDEAKFPGTAGSTFSIARLGVPETYCADSQQGLRMNATRAWDHNDYYPTDFVASMTLASTWDREAAFKVGQGIGNEVREFGLDWILSPAMNLIRNPLCGRNHEYYSEDPYLSGTIAAGYVNGVQSEGTAACPKHFVANNQETNRNNNVSQVSQRALREIYLKAFEIMVKESNPWTIMTSYNKLNGPYAVQNHDLLTTIVRNEWGWKGMYVSDWNAGDDAVAAMLAGNDMLQPGQDKQYQAILEAAQSGKLPMEVIDANVKRILEYVVKTHNFKGYKYNNEPDLKAHAKVVREVGADGIVLLKNSGVLPLVGKRVALFGCTSYDWISGGSGFGGTSVGHYTVSLIEGMRSVGYEIYKPLIAAYTQHIAAEEKRLFPNGRPAFSLMPPARADEKQFTADELNAAIEGSDVAIISLGRKSGEAADRSESDFYLKDGEAQLIKAVSDAYHAKGKQVVVLLDICSPIDVASWQNQVDALVCTWQGGQESGFSVADVLSGKVNPSGKLPMTFQIKYGDAYADKNFPANVDDKTLGAMFMWGYDKDNTPKERQLQANIDFTNYEEDIYVGYRYFDSFSKPVAYPFGFGLSYTTFAYENLSVSETDGVFTVKVDVKNTGNKAGRNVVELFVAAPNSKQLNKPEKELRNYAKTSLLKPGQTETVIMLVKTEDLASFNEKASAWKTDAGVYTFMICSSANQIEVQTSAKVKAWTKKVNNVMKPKLKLNLLKR
notes: gene 2343 bp (780 residues calculated), full ORF from ATG with native signal region in pET-41 Ek/LIC, E. coli BL21(DE3), Ni-NTA, tags removed by enterokinase

Experiments:
Experiment in all cases: purified protein
Conditions in all cases: 40°C, pH 5.6, 50 mM sodium acetate
purified protein [1] = substrate: O=[N+]([O-])c1ccc(O[C@@H]2O[C@H](CO)[C@@H](O)[C@H](O)[C@H]2O)cc1
purified protein [2] = substrate: O=[N+]([O-])c1ccc(O[C@@H]2O[C@H](CO)[C@@H](O[C@@H]3O[C@H](CO)[C@@H](O)[C@H](O)[C@H]3O)[C@H](O)[C@H]2O)cc1; format: biochemical, uncultured bacterium LAB25
purified protein [3] = substrate: O=[N+]([O-])c1ccc(O[C@@H]2O[C@H](CO)[C@@H](O[C@@H]3O[C@H](CO)[C@@H](O)[C@H](O)[C@H]3O)[C@H](O)[C@H]2O)cc1; format: biochemical, uncultured bacterium LAB20
purified protein [4] = substrate: O=[N+]([O-])c1ccc(O[C@@H]2O[C@H](CO)[C@@H](O[C@@H]3O[C@H](CO)[C@@H](O)[C@H](O)[C@H]3O)[C@H](O)[C@H]2O)cc1; format: biochemical, uncultured bacterium SRF2

Protein	Km (purified protein [1]) [µM]	kcat (purified protein [1]) [s⁻¹]	kcat/Km (purified protein [1]) [M⁻¹ s⁻¹]	Km (purified protein [2]) [µM]	kcat (purified protein [2]) [s⁻¹]	kcat/Km (purified protein [2]) [M⁻¹ s⁻¹]	Km (purified protein [3]) [µM]	kcat (purified protein [3]) [s⁻¹]	kcat/Km (purified protein [3]) [M⁻¹ s⁻¹]	Km (purified protein [4]) [µM]	kcat (purified protein [4]) [s⁻¹]	kcat/Km (purified protein [4]) [M⁻¹ s⁻¹]
B1	450 ± 60	0.41	920	390 ± 30	0.17 ± 0.36	438						
B2	30 ± 3	0.88	29500				1470 ± 130	0.12 ± 0.2	82.7			
B3	34 ± 3	0.37	10800							480 ± 54	0.19 ± 0.36	416
B4	1730 ± 4	0.27	159							480 ± 72	0.11 ± 0.22	232
